Patent US10000749B2, “Valencene synthase polypeptides, encoding nucleic acid molecules and uses thereof” (Evolva, Inc., priority 2013, dated 2018)
Entries after “also recorded” stand apart in the source; their conditions may differ.

Columns and labels:
[1] = test system: ticks and mosquitoes; conditions: against ticks and mosquitoes; cited from earlier work
[2] = Steady state kinetic analysis of His-tag purified valencene synthases; type: biochemical
Description: In this example, the activity of E. glaciale valencene synthase (EgVS; SEQ ID NO:1) and of the citrus valencene synthase designated V277 (SEQ ID NO:31) were evaluated by steady state kinetic analysis. To compare the activities of these enzymes in vitro, the valencene synthases were Histidine-tagged at the C-terminus, expressed in E. coli, purified by nickel chelate chromatography, and evaluated for activity by steady state kinetic analysis. […] T=30C. Detection: GC/MS-SIM.

[3] = test system: Saccharomyces cerevisiae strain ALX11-30; test: Shake flask assay of cells expressing valencene synthase; type: cell-based; conditions: FIG. 7, cells expressing the synthase
Description: Seed cultures were started in 250 mL flasks by inoculating 15 mL of SD or SDE medium (for ALX11-30 and ALX7-95 strains, respectively) with freshly growing colonies of the 7 strains shown in Table 5 above. The cultures were grown for 24 hours, and 2.5 mL of each culture were used to inoculate 50 mL of fermentation medium (2% ammonium sulfate, 2% potassium phosphate, 0.1% NaCl, 0.6% MgSO4.7H2O, 0.4% yeast extract, 1 mL mineral solution [FeSO4.7H2O 0.028%, ZnSO4.7H2O 0.029%, CuSO4.5H2O 0.008%, Na2MoO4.2H2O 0.024%, CoCl2.6H2O 0.024%, MnSO4.H2O 0.017%, HCl 1 mL], 0.5 mL 50% glucose, 1.5 mL vitamin solution [biotin 0.001%, Ca-pantothenate 0.012%, inositol 0.06%, pyridoxine-HCl 0.012%, thiamine-HCl 0.012%], and 0.5 mL 10% CaCl2) in a 250 mL baffled flask. The cultures were grown at 28° C. After 16 hours of incubation, the cultures were fed 3.6 mL of 50% glucose and 0.667 mL of 12.5% yeast extract. […] An aliquot of the organic phase was analyzed by gas chromatography and the amount of valencene produced was quantified by calculating the area under the peak representing valencene. […]
Table 6a below provides product distribution profiles including the amount of valencene produced from the shake flask assay, as determined by gas chromatography, of CVS 277 compared to two strains that produce EGVS in the ALX11-30 strain (as described in Example 3).

C=C(C)[C@@H]1CCC2=CC(=O)C[C@@H](C)[C@]2(C)C1 [nootkatone, 4,4a,5,6,7,8-hexahydro-6-isopropenyl-4,4-a-dimethyl-2(3H)-naphthalenone]
Repellent and insecticide effect [1]: effective repellent and insecticide

B1: EgVS: Eryngium glaciale valencene synthase, amino acid sequence SEQ ID NO:1; His-tagged at the C-terminus for kinetics (protein)
chain: MSLNVLSTSGSAPTTKSSEITRRSANYHPSLWGDKFLEYSSPDHLKNDSFTEKKHEQLKEEVKKMLVETVQKPQQQLNLINEIQRLGLSYLFEPEIEAALQEISVTYDEFCCSTDADDLHNVALSFRILREHGHNVSSDVFQKFMDSNGKLKDYLVNDARGLLSLYEATHFRVHNDDKLEELLSVTTSRLEHLKSHVKYPLEDEISRALKHPLHKELNRLGARYYISIYEKFDSHNKLLLEFAKLDFNRLQKMYQHELAHLTRWWKDLDFTNKLPFARDRIVEGYFWILGMYFEPERKDVREFLNRVFALITVVDDTYDVYGTFKELLLFTDAIERWGTSDLDQLPGYMRIIYQALMDVYNQMEEKLSMKADCPTYRLEFAIETVKAMFRSYLEEARWSKEHYIPSMEEYMTVALVSVGYKTILTNSFVGMGDIATREVFEWVFNSPLIIRASDLIARLGDDIGGHEEEQKKGDAATAIECYIKENHVTKHEAYDEFQKQIDNAWKDLNKEALRPFPVPMTFITRVVHFTRAIHVIYADFSDGYTRSDKAIRGYITSLLVDPIPL
modifications: C-terminal His tag; Eryngium glaciale; valencene synthase protein
notes: His-tagged at the C-terminus for kinetics
Turnover compared with valencene synthase V277 [2]: turned over significantly more times | Total and specific activity compared with valencene synthase V277 ([2]; side-by-side comparison, FIG. 6): dramatically higher total and specific activity; also recorded: exhibits greater activity | Valencene production in yeast compared to the CVS synthase ([3]; listed as EG synthase): more than twice the amount of valencene | Valencene production in yeast compared to the CVS synthase ([3]; listed as EVS): significantly greater
